In PMC10434305:
Read-outs that look alike come from different tables or passages of the source.

Columns and labels:
[1] = target: Arp3 L117C, C408A, C189A, C307A (subunit of human Arp2/3 complex for the crosslinking assay) (human) (UniProt P61158); test: cross-linking
[2] = target: Arp3 L117C, C408A, C189A, C307A (subunit of human Arp2/3 complex for the crosslinking assay) (human) (UniProt P61158); test: cross-linking; remark: listed apart in the source
[3] = target: Arp3 L117C, C408A, C189A, C307A (subunit of human Arp2/3 complex for the crosslinking assay) (human) (UniProt P61158); test: cross-linking; remark: listed apart in the source
[4] = target: Skeletal α-actin, monomeric (G-actin) (UniProt P68135); test: SEC

Substance | crosslinked fraction at plateau [1] [%] | crosslinked fraction at plateau [2] [%] | crosslinked fraction at plateau [3] [%] | stoichiometry N (CapZ-CA:actin) [4]
Arp2 L199C (subunit of human Arp2/3 complex for the crosslinking assay) (from UniProt P61160 1-394) (natural protein) | 34 | 14 | 34 | –
CapZ-CA hybrid heterodimer (CapZα-CA, CapZβ-CA) (from UniProt P52907;Q91YD9;P47756) (complex) | – | – | – | 1
